Results taken from patent US6861578B1, “Method for plant protection against insects or nematodes by transformation with a nucleic acid encoding equistatin” (Plant Research International B.V., priority 1997, dated 2005).

Columns and labels:
[1] = target: potato protease inhibitor-insensitive cysteine proteases of Colorado potato beetle (Leptinotarsa decemlineata) larval gut extracts; experiment: cell-based or functional assay
[2] = target: proteases in extracts of adult leafminer flies (Liriomyza trifolii); experiment: cell-based or functional assay
[3] = target: proteases in extracts of adult western flower thrips (Frankliniella occidentalis); experiment: cell-based or functional assay
[4] = target: T1, papain (UniProt P00784 134-345); experiment: continuous rate enzyme inhibition assay with papain
T1 construct: also called cysteine proteinase, papain
T1 sequence (looked up): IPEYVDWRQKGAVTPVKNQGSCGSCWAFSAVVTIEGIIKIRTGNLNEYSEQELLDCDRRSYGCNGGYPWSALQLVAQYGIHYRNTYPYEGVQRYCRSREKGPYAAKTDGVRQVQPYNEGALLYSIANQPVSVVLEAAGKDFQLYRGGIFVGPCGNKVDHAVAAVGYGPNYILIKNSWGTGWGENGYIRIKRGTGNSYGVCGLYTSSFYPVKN

[5] = target: T1, papain; experiment: continuous rate enzyme inhibition assay with papain; Ki = kd/ka
[6] = target: T2, cathepsin D (Homo sapiens, UniProt P07339); experiment: active site titration of cathepsin D with equistatin (FIG. 12)
[7] = target: T2, cathepsin D; experiment: steady state inhibition of cathepsin D hydrolysis of chromophoric substrate
[8] = target: Colorado potato beetle larval gut proteases (total gut extract, pH 3); experiment: cell-based or functional assay
[9] = target: western corn rootworm (Diabrotica virgifera) third instar larval gut proteases; experiment: cell-based or functional assay
[10] = target: T1, papain; experiment: papain titration in microtiter plate, Z-Phe-Arg-pNA substrate
Protocol: In a microtiterplate 20 µl papain solution (a fresh solution of 1 mg/ml (Sigma) in MES buffer titrated with E-64 to determine the active fraction, usually 17%) is combined with 0–80 µl of known protein concentration. MES buffer (50 mM MES, pH 6.5; 0.6 mg/ml L-cysteine; 1 mg/ml BSA fraction V) is added to a final volume of 150 µl. The mixture is incubated for 30 min at room temperature and subsequently 50 µl of substrate solution (60 µl of 15 mg/ml Z-Phe-Arg-pNA dissolved in methanol is diluted in 940 µl MES buffer before use). The plate is immediately placed in the nicrotiterplate reader and measured at 405 nm. Readings up to an OD600 of 0.3 are linear. Rates of change are used to determine the activity with increasing amounts of inhibitor. Results are graphically represented and at stoichiometric concentrations the amount of dissociated complex is determined to determine the apparent equilibrium dissociation constant (Ki). […] The apparent equilibrium dissociation constant for papain was estimated to be 0.6 nM in agreement with the data published for the purified protein (Lenarcic et al. (1997) J. Biol. Chem. 272: 13899–13903.

B1: equistatin, isolated from sea anemone Actinia equina (protein)
chain: SLTLCGGLGASAASGLIGTTVPGCLGTGGPGGLGCTGSTGTCTCVAGAGLGILGTLIAGSPACSAALAALTLCGMMGAIIVAVPGTCGPPSCLAAGSPAGVGCCASAGGCTCVALLGLGLGGTAGGGAPTCGAHLSGCGGAAILAHSASLAVGMPVPGCLGAGSTAPVGCTPSTGTCTCVAGGGVLVPGSAVAPLAPTC
For B1, the residual amino-peptidase activity (L-Arg-pNA), equimolar inhibitor (% of residual activity) [1] was 85, the residual amino-peptidase activity (L-Arg-pNA), excess inhibitor (% of residual activity) [1] was 75 and the residual broad spectrum endoprotease activity (Z-Phe-Arg-pNA), equimolar inhibitor (% of residual activity) [1] was 30. The residual broad spectrum endoprotease activity (Z-Phe-Arg-pNA), excess inhibitor (% of residual activity) [1] was 20, the residual general proteolytic activity (azocasein) in excess of inhibitor (% residual activity) [1] was 10 and the residual narrow spectrum endoprotease activity (Z-Arg-Arg-pNA), equimolar inhibitor (% of residual activity) [1] was 20. For the same binder, the residual narrow spectrum endoprotease activity (Z-Arg-Arg-pNA), excess inhibitor (% of residual activity) [1] was -5, the residual tri-peptidil-peptidase and endoprotease activity (pGlu-Phe-Leu-pNA), equimolar inhibitor (% of residual activity) [1] was 10 and the residual tri-peptidil-peptidase and endoprotease activity (pGlu-Phe-Leu-pNA), excess inhibitor (% of residual activity) [1] was -5. For the same binder, the residual protease activity (FITC-hemoglobin), pH 3.5 (% residual activity) [2] was 24, the residual protease activity (FITC-hemoglobin), pH 3.5 (% residual activity) [3] was 5 and the koff [4] was 0.0065 s⁻¹. The kon [4] was 1.2e+07 M⁻¹ s⁻¹, the Ki [5] was 0.57 nM and the binding stoichiometry (mol equistatin per mol cathepsin D) [6] was 1. It also gave a Ki [7] of 0.3 nM.

B2: recombinant equistatin (expressed in E. coli from pB3-equistatin, purified on papain-sepharose) (other, not shown: large carriers; small tags and cut ends)
chain: SLTKCQQLQASANSGLIGTYVPQCKETGEFEEKQCWGSTGYCWCVDEDGKEILGTKIRGSPDCSRRKAALTLCQMMQAIIVNVPGWCGPPSCKADGSFDEVQCCASNGECYCVDKKGKELEGTRQQGRPTCERHLSECEEARIKAHSNSLRVEMFVPECLEDGSYNPVQCWPSTGYCWCVDEGGVKVPGSDVRFKRPTC
notes: also called EI
B2 was tested, and the inhibition of total protease activity (FITC-hemoglobin), pH 3 [8] was 62 % inhibition, the residual protease activity (FITC-hemoglobin), pH 3 (% residual activity) [8] was 36 and the residual protease activity (FITC-hemoglobin), pH 3 (% residual activity) [9] was 2. For the same binder, the residual protease activity (FITC-hemoglobin), pH 6.5 (% residual activity) [9] was 7 and the Ki [10] was 0.6 nM.
